Results published in PMC6914384 (Nature, 2018).
No end group written: not given here.

Biological target: T1, p300 BRP (Homo sapiens, UniProt Q09472)
T1 sequence (Q09472 1048-1282): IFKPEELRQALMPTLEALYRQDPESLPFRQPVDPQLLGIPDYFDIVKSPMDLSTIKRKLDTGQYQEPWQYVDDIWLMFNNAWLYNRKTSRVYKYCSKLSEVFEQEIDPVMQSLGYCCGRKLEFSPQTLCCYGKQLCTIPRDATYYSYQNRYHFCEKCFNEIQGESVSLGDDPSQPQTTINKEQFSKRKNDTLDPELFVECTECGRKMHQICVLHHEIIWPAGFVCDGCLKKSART
Test: ITC of histone and AIL peptides with p300 BRP
Assay type: binding
Details: p300 BRP module; for Binding by ITC, result in words (printed in column N): Kd cell prints --

| Substance | Binding by ITC, result in words (printed in column N) | Kd (μM) (mean and s.d. of experiments in triplicate) |
| --- | --- | --- |
| H3 K4me1 (1-20): histone H3 peptide 1-20, K4me1 | No binding |  |
| H3 K18ac (1-20): histone H3 peptide 1-20, K18ac |  | large |
| ARTKQTQRKSTGGKAPRKQL [H3 unmodified (1-20)] | No binding |  |
| H4 K16ac (4-24): histone H4 peptide 4-24, K16ac | No binding |  |
| SKNAKKKNNKKTSKNKSS [AIL (1545-1562)] | No binding |  |
| H3T11pho (1-20): histone H3 peptide 1-20, T11 phosphorylated | No binding |  |

Other lines, results leading:

| Binding by ITC, result in words (printed in column N) | Kd (μM) (mean and s.d. of experiments in triplicate) | Substance |
| --- | --- | --- |
| No binding |  | AIL K1549K1558K1560tri-ac (1545-1562): p300 autoinhibitory loop peptide 1545-1562 acetylated on K1549, K1558, K1560 (SKNAK(Ac)KKNNKKTSK(Ac)NK(Ac)SS) |
| No binding |  | H3 K4me3 (1-20): histone H3 peptide 1-20, K4me3 |
| No binding |  | H3 S10pho (1-20): histone H3 peptide 1-20, S10 phosphorylated |
| No binding |  | H4 K5ac (4-24): histone H4 peptide 4-24, K5ac |
| No binding |  | H3 K9ac (1-20): histone H3 peptide 1-20, K9ac |
